# B1: Glutamate receptor 1 (Rattus norvegicus (Rat)), P19490 (parent)
# chain: MPYIFAFFCTGFLGAVVGANFPNNIQIGGLFPNQQSQEHAAFRFALSQLTEPPKLLPQIDIVNISDSFEMTYRFCSQFSKGVYAIFGFYERRTVNMLTSFCGALHVCFITPSFPVDTSNQFVLQLRPELQEALISIIDHYKWQTFVYIYDADRGLSVLQRVLDTAAEKNWQVTAVNILTTTEEGYRMLFQDLEKKKERLVVVDCESERLNAILGQIVKLEKNGIGYHYILANLGFMDIDLNKFKESGANVTGFQLVNYTDTIPARIMQQWRTSDSRDHTRVDWKRPKYTSALTYDGVKVMAEAFQSLRRQRIDISRRGNAGDCLANPAVPWGQGIDIQRALQQVRFEGLTGNVQFNEKGRRTNYTLHVIEMKHDGIRKIGYWNEDDKFVPAATDAQAGGDNSSVQNRTYIVTTILEDPYVMLKKNANQFEGNDRYEGYCVELAAEIAKHVGYSYRLEIVSDGKYGARDPDTKAWNGMVGELVYGRADVAVAPLTITLVREEVIDFSKPFMSLGISIMIKKPQKSKPGVFSFLDPLAYEIWMCIVFAYIGVSVVLFLVSRFSPYEWHSEEFEEGRDQTTSDQSNEFGIFNSLWFSLGAFMQQGCDISPRSLSGRIVGGVWWFFTLIIISSYTANLAAFLTVERMVSPIESAEDLAKQTEIAYGTLEAGSTKEFFRRSKIAVFEKMWTYMKSAEPSVFVRTTEEGMIRVRKSKGKYAYLLESTMNEYIEQRKPCDTMKVGGNLDSKGYGIATPKGSALRNPVNLAVLKLNEQGLLDKLKNKWWYDKGECGSGGGDSKDKTSALSLSNVAGVFYILIGGLGLAMLVALIEFCYKSRSESKRMKGFCLIPQQSINEAIRTSTLPRNSGAGASGGGGSGENGRVVSQDFPKSMQSIPCMSHSSGMPLGATGL
# Variants of: B1
# Conditions: with kcc2a_rat Camk2a
row,effect of a mutation on the interaction,Variant
1,disrupting interaction,S567A

# Reference: IntAct's records for PubMed 21135237
